According to patent US20060148715A1, “Structural requirements for STAT3 binding and recruitment to phosphotyrosine ligands” (BAYLOR COLLEGE OF MEDICINE, priority 2004, published 2006):
Like-named read-outs stand apart in the source and are kept apart here. Blank lines part the entries; values can stand above or below the molecule they belong to. Non-standard residues stand in square brackets, D forms with d. Residues, ends and D or L forms follow the SMILES beside them. No end group written: not given here. *: point of attachment. d‑Biotin‑LC = N-terminal biotin (d-Biotin-LC), O=C(CCCC[C@@H]1SC[C@@H]2NC(=O)N[C@@H]21)NCCCCCC(=O)*; Biotin = O=C1N[C@H]2[C@H](CS[C@H]2CCCCC(=O)*)N1; pY = N[C@@H](Cc1ccc(OP(=O)(O)O)cc1)C(=O)O; Ahx = NCCCCCC(=O)O

Tests used:
wild type Stat3 = molecular target: T1, wild type Stat3 (Homo sapiens, UniProt P40763); experiment: Mirror resonance affinity assay (resonant mirror biosensor); type: binding; settings: for Kd: wild type Stat3 binding to G-CSFR phosphododecapeptides, ratio kdiss/kass, read-out: KD
T1 construct: made in house; host or cells: Sf9 insect cells (baculovirus, pFastBac1)
Description: (§1) Kinetics experiments were performed using an lasys Auto+ resonant mirror biosensor (Affinity Sensor, Paramus, N.J.) (see Sadowski et. al, 1986). Briefly, two-welled cuvettes coated on the bottom of each well with biotin were purchased from Affinity Sensor and prepared for immobilization of biotinylated peptides by coating each surface with 0.04 mg/ml NeutrAvidin (Pierce) and washing with PBS-T (20 mM Na Phosphate, 0.05% Tween-20). Biotinylated peptide (5 μg) was added into each well—experimental peptide to one well and control peptide to the other—and change in arc seconds monitored simultaneously in both wells using the biosensor until stable followed by washing with PBS-T. Real-time binding of Stat3 was conducted at 25° C. at a stir speed of 70 for 10 min starting at the lowest concentration of Stat3. The wells were washed out with three changes of 60 μl PBS-T, and dissociation was allowed to proceed for 5 min. Each well bottom was regenerated by washing with […] of 100 mM formic acid for 2 min and equilibrated with PBS-T for the next round of association assay. Data were collected automatically and analyzed with the FASTplot and GraFit software (see Sheinerman et. al, 2003).
(§2) Mirror resonance affinity assay. Two cells of a biotin-coated cuvette pretreated with saturating amounts of NeutrAvidin. One well of the cuvette was pretreated with biotinylated phosphopeptide based on Y1068 (pY1068, left panel), while the other well was pretreated with biotinylated non-phosphorylated peptide Y1068 (Y1068, right panel) as a control for non-specific binding. Wild type or mutated Stat3 protein was added in the concentrations indicated to each of the two cells and mirror resonance measurements recorded continuously for 10 min as shown.
To obtain quantitative kinetic information about the binding of Stat3 to G-CSFR Y704 and Y744 including association rates (kass), disassociation rates (kdiss) and dissociation equilibrium constants (KD), real-time affinity measurements using a mirror resonance biosensor were performed. The biosensor exploits surface plasmon resonance to measure in real time the alteration in the angle of a laser light reflected from a surface upon which binding events are occurring. Biotinylated peptides were immobilized onto the bottom surface of cuvette wells pre-coated with NeutrAvidin. The interaction of peptides with Stat3 added at different concentrations was measured in real time as altered deflection of a laser light striking the bottom surface of the cuvette; the alterations in the deflection angle measured in arc seconds was analyzed with GraFit software. […] The slightly lower KD for Y704 vs. Y744 is attributable to a faster association rate of Stat3 binding to this phosphododecapeptide.

Stat3-3M [1] = molecular target: T2, Stat3-3M (Homo sapiens, UniProt P40763, E638L/Y640F/Y657F); experiment: as above; type: binding; settings: Stat3-3M binding to G-CSFR phosphododecapeptides; ratio kdiss/kass; read-out: KD
T2 construct: made in house; host or cells: Sf9 insect cells (baculovirus, pFastBac1)
Description: as §1, §2

[2] = molecular target: pY1068 phosphododecapeptide (EGFR); experiment: mirror resonance biosensor, biotinylated peptide on NeutrAvidin, Stat3 in solution
[3] = molecular target: pY744 phosphododecapeptide (G-CSFR) (human); experiment: as above
[4] = molecular target: pY704 phosphododecapeptide (G-CSFR) (human); experiment: as above
Stat3-E638P [5] = molecular target: T3, Stat3-E638P (human, UniProt P40763 1-770); experiment: peptide pull-down: biotinylated peptide on NeutrAvidin agarose, purified His-tagged Stat3 protein added, bound protein immunoblotted with Stat3 mAb
T3 construct: Produced in Sf9 cells; CD spectrum essentially identical to wild type

[6] = molecular target: T4, wild type Stat3 (recombinant human Stat3alpha with N-terminal 6-histidine tag) (human, UniProt P40763 1-770); experiment: as above
T4 construct: Expressed in Sf9 cells and purified on Ni-NTA for peptide assays; expressed from pcDNA3.1 in 293T cells for the G-CSFR co-immunoprecipitation; also called WT; purified Stat3

Stat3-3M [7] = molecular target: T5, Stat3-3M (human, UniProt P40763 1-770, limits assumed); experiment: as above
[8] = molecular target: T4, wild type Stat3 (recombinant human …); experiment: as above; remark: listed apart in the source
Stat3-E638P [9] = molecular target: T3, Stat3-E638P; experiment: as above; remark: listed apart in the source
[10] = molecular target: T4, wild type Stat3 (recombinant human …); experiment: as above; remark: listed apart in the source
Stat3-4M = Stat3-4M (human, UniProt P40763 1-770, limits assumed); experiment: as above
Stat3-3M [11] = molecular target: T5, Stat3-3M; experiment: as above; remark: listed apart in the source
Stat3-6M = Stat3-6M (human, UniProt P40763 1-770, limits assumed); experiment: as above
Stat3-E638P [12] = molecular target: T3, Stat3-E638P; experiment: mirror resonance biosensor: biotinylated peptide on NeutrAvidin-coated cuvette, Stat3 protein in solution, association followed for about 10 min
Description: as §1, with “Biotinylated peptide (5 μg) was added into each well—experimental peptide to one well and control peptide to the other—and change in arc seconds monitored simultaneously in both wells using the biosensor until stable followed by washing with PBS-T. Real-time binding of Stat3 was conducted at 25° C. at a stir speed of 70 for 10 min starting at the lowest concentration of Stat3.” left out
as §2, with “binding.” for “binding. Wild type or mutated Stat3 protein was added in the concentrations indicated to each of the two cells and mirror resonance measurements recorded continuously for 10 min as shown.”

[13] = molecular target: T4, wild type Stat3 (recombinant human …); experiment: as above
Description: as §1, with “Biotinylated peptide (5 μg) was added into each well—experimental peptide to one well and control peptide to the other—and change in arc seconds monitored simultaneously in both wells using the biosensor until stable followed by washing with PBS-T. Real-time binding of Stat3 was conducted at 25° C. at a stir speed of 70 for 10 min starting at the lowest concentration of Stat3.” left out
as §2, with “binding.” for “binding. Wild type or mutated Stat3 protein was added in the concentrations indicated to each of the two cells and mirror resonance measurements recorded continuously for 10 min as shown.”

T4 sequence (P40763 other isoform, or with tags, fused parts or gaps limits assumed): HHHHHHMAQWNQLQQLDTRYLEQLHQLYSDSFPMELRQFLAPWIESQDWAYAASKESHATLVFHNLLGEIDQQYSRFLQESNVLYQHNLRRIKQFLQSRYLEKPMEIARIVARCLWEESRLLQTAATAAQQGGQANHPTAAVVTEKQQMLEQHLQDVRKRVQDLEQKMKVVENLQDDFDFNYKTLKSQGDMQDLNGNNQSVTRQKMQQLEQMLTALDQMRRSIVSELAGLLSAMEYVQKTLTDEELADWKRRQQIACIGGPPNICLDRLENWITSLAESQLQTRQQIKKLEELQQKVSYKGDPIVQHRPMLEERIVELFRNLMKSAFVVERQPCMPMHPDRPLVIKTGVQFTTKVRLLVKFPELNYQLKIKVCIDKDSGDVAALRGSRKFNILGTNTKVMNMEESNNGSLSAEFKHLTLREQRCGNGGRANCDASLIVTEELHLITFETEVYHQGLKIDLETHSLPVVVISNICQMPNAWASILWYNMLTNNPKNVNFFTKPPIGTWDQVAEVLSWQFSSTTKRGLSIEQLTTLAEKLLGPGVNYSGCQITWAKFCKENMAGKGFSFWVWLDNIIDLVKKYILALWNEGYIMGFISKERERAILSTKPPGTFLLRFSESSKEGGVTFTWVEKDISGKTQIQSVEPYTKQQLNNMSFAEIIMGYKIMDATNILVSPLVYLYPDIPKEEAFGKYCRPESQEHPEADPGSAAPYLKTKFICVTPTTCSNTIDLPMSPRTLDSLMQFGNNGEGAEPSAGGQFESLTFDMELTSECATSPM
T5 sequence (P40763 other isoform, or with tags, fused parts or gaps limits assumed): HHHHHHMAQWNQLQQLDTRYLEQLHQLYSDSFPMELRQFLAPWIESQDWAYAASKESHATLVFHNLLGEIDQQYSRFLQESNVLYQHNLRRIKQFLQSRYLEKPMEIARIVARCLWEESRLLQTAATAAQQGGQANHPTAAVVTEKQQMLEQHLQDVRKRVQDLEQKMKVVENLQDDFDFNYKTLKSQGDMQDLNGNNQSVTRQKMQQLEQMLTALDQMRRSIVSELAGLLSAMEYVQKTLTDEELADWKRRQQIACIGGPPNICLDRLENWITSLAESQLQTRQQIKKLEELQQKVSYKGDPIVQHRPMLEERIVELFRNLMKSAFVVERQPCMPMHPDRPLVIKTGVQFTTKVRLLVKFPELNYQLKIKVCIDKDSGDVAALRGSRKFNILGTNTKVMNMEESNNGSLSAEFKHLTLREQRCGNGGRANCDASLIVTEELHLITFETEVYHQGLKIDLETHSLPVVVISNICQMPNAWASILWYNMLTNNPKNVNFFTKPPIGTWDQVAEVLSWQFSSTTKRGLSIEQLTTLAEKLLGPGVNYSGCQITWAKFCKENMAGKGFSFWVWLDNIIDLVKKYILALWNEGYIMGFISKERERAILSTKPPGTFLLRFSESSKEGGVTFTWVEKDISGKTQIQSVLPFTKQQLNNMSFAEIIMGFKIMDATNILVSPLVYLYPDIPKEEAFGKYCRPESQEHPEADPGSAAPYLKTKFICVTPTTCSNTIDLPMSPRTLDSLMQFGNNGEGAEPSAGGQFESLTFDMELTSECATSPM
T3 sequence (P40763 other isoform, or with tags, fused parts or gaps E638P E638P limits assumed): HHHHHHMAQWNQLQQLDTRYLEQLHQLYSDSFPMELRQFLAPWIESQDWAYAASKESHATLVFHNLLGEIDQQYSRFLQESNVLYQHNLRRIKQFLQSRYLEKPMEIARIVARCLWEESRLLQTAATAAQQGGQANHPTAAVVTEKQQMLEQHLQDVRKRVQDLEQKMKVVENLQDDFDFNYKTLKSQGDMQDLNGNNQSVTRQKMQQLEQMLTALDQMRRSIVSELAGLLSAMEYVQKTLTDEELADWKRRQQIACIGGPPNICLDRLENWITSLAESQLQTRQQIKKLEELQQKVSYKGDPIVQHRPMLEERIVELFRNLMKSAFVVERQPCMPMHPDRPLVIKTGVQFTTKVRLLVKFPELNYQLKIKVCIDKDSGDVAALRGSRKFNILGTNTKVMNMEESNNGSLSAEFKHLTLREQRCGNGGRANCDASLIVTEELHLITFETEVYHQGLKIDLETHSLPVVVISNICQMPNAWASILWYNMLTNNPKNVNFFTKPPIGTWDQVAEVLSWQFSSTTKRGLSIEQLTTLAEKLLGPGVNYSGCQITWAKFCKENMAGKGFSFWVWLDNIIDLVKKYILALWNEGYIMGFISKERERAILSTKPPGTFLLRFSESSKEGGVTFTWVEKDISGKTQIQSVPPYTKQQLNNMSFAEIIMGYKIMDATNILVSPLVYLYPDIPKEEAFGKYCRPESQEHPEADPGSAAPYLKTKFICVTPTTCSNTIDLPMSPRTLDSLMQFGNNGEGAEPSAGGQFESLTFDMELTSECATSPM
T1 sequence (P40763 whole entry): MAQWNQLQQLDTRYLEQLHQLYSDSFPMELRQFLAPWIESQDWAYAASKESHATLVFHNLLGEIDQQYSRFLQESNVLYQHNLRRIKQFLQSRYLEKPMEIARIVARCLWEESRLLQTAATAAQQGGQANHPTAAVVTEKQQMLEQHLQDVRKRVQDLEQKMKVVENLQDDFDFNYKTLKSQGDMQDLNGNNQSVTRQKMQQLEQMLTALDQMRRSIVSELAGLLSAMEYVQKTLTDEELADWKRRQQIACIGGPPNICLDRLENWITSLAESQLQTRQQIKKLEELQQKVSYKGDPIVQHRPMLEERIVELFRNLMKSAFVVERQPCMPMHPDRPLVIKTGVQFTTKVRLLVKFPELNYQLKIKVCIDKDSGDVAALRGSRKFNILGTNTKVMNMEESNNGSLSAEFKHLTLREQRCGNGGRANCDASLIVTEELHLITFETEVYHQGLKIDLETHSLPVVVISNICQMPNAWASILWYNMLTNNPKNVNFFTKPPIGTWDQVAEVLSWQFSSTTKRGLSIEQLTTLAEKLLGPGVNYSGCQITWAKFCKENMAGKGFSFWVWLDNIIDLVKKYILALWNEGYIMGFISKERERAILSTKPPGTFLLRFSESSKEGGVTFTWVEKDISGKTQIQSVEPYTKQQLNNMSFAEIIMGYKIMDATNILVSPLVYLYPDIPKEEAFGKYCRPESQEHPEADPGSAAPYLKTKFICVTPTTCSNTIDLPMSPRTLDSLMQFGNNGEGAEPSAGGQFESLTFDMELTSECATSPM
Stat3-6M, sequence (P40763 other isoform, or with tags, fused parts or gaps limits assumed): as the sequence (P40763 other isoform, or with tags, fused parts or gaps E638P E638P limits assumed) above, with P644L, Y646F, Y663F, C693A, S697A, Q698L counted along it
T2 sequence (P40763 whole entry E638L/Y640F/Y657F): as the sequence (P40763 whole entry) above, with E638L, Y640F, Y657F counted along it
Stat3-4M, sequence (P40763 other isoform, or with tags, fused parts or gaps limits assumed): as the sequence (P40763 other isoform, or with tags, fused parts or gaps E638P E638P limits assumed) above, with P644E, Y663F, C693A, S697A, Q698L counted along it

Stat3 binding in real-time resonance mirror affinity assay (wild type Stat3; wild type Stat3): undetectable
Molecule: LPVPE(pY)INRSVP (LPVPE[pY]INRSVP) [Y1068 Q-to-R PDP]

Kd (Stat3-3M [1]): 1060 ± 150 nM
Kd (wild type Stat3): 950 nM
Molecule: CC(C)C[C@H](NC(=O)[C@H](Cc1ccc(OP(=O)(O)O)cc1)NC(=O)[C@H](Cc1c[nH]cn1)NC(=O)CNC(=O)[C@@H]1CCCN1C(=O)CNC(=O)[C@@H]1CCCN1C(=O)CCCCCNC(=O)CCCC[C@@H]1SC[C@@H]2NC(=O)N[C@@H]21)C(=O)N[C@@H](CCCNC(=N)N)C(=O)N[C@@H](CS)C(=O)N[C@@H](CC(=O)O)C(=O)N[C@@H](CO)C(=O)N[C@H](C(=O)O)[C@@H](C)O [compound 744, PGPGHpYLRCDST] ({Biotin-Ahx}-PGPGH[pY]LRCDST-OH)

Kd (Stat3-3M [1]): 1210 nM
Kd (wild type Stat3): 703 nM
Molecule: CC(C)C[C@H](NC(=O)[C@@H](NC(=O)[C@H](Cc1ccc(OP(=O)(O)O)cc1)NC(=O)[C@@H](NC(=O)[C@H](CCC(N)=O)NC(=O)[C@@H](NC(=O)[C@H](CC(C)C)NC(=O)[C@@H](NC(=O)CCCCCNC(=O)CCCC[C@@H]1SC[C@@H]2NC(=O)N[C@@H]21)[C@@H](C)O)C(C)C)[C@@H](C)O)C(C)C)C(=O)N[C@@H](CCC(N)=O)C(=O)NCC(=O)N[C@@H](CC(=O)O)C(=O)N1CCC[C@H]1C(=O)O [compound 704, TLVQTpYVLQGDP] ({Biotin-Ahx}-TLVQT[pY]VLQGDP-OH)

Kd [2]: 223 nM
Kd [3]: 950 nM
Kd [4]: 703 nM
Molecule: wild type Stat3 (recombinant human Stat3alpha with N-terminal 6-histidine tag) (from UniProt P40763 1-770)

binding result (Stat3-E638P [5]): no binding
binding result [6]: no binding
binding result (Stat3-3M [7]): no binding
B1: Y704 non-phosphorylated dodecapeptide (G-CSFR) (peptide)
peptide: {d‑Biotin‑LC}-TLVQTYVLQGDP

binding result [8]: no binding
binding result (Stat3-E638P [9]): no binding
B2: pY1068-R phosphododecapeptide (EGFR Y1068, +3 Q to R) (peptide)
peptide: {d‑Biotin‑LC}-LPVPE[pY]INRSVP
notes: also called Y1068 Q-to-R PDP

binding result (Stat3-E638P [5]): no binding
B3: pY744 phosphododecapeptide (G-CSFR) (peptide)
peptide: {d‑Biotin‑LC}-PGPGH[pY]LRCDST

binding result (Stat3-E638P [9]): no binding
B4: pY1173 (peptide)
peptide: {d‑Biotin‑LC}-LDNPD[pY]QQDFFP
notes: EGFR-based phosphopeptide; also called pY1173 phosphododecapeptide (EGFR)

binding result (Stat3-E638P [5]): no binding
B5: pY704 phosphododecapeptide (G-CSFR) (peptide)
peptide: {d‑Biotin‑LC}-TLVQT[pY]VLQGDP

binding result (Stat3-E638P [9]): no binding
B6: pY1148 (peptide)
peptide: {d‑Biotin‑LC}-VGNPE[pY]LNTVQP
notes: EGFR-based phosphopeptide; also called pY1148 phosphododecapeptide (EGFR)

binding result (Stat3-E638P [5]): no binding
binding result [6]: no binding
B7: pY729 phosphododecapeptide (G-CSFR) (peptide)
peptide: {d‑Biotin‑LC}-SDQVL[pY]GQLLGS

binding result [10]: no binding
binding result (Stat3-4M): no binding
binding result (Stat3-3M [11]): no binding
binding result (Stat3-6M): no binding
binding result (Stat3-E638P [9]): no binding
B8: Y1086 non-phosphorylated dodecapeptide (EGFR) (peptide)
peptide: {d‑Biotin‑LC}-VQNPVYHNQPLN

binding result (Stat3-E638P [12]): no binding (tested: 600 nM)
B9: pY1068 phosphododecapeptide (EGFR) (peptide)
peptide: LPVPEXINQSVP
modifications: phosphotyrosine at position 6 (EGFR Y1068); N-terminal biotin (d-Biotin-LC)
notes: also called Y1068 PDP; Y1068 phosphopeptide

binding result (Stat3-4M): no binding
binding result (Stat3-3M [11]): no binding
binding result (Stat3-6M): no binding
binding result (Stat3-E638P [12]): no binding (tested: 600 nM)
binding result [13]: no binding
B10: Y1068 non-phosphorylated dodecapeptide (EGFR) (peptide)
peptide: {d‑Biotin‑LC}-LPVPEYINQSVP
notes: also called unphosphorylated Y1068 dodecapeptide

binding result (Stat3-E638P [9]): no binding
B11: pY1086 phosphododecapeptide (EGFR) (peptide)
peptide: {d‑Biotin‑LC}-VQNPV[pY]HNQPLN
notes: also called Y1086 PDP; Y1086 phosphopeptide

binding result [8]: no binding
binding result (Stat3-E638P [9]): no binding
B12: pY1068-E phosphododecapeptide (EGFR Y1068, +3 Q to E) (peptide)
peptide: {d‑Biotin‑LC}-LPVPE[pY]INESVP

binding result [8]: no binding
binding result (Stat3-E638P [9]): no binding
B13: pY1068-L phosphododecapeptide (EGFR Y1068, +3 Q to L) (peptide)
peptide: {d‑Biotin‑LC}-LPVPE[pY]INLSVP

binding result (Stat3-E638P [9]): no binding
B14: pY992 (peptide)
peptide: {d‑Biotin‑LC}-TDSNF[pY]RALMDE
notes: EGFR-based control phosphopeptide; also called pY992 phosphododecapeptide (EGFR)

binding result [8]: no binding
binding result (Stat3-E638P [9]): no binding
B15: pY1068-M phosphododecapeptide (EGFR Y1068, +3 Q to M) (peptide)
peptide: {d‑Biotin‑LC}-LPVPE[pY]INMSVP

binding result (Stat3-E638P [5]): no binding
binding result [6]: no binding
B16: pY764 phosphododecapeptide (G-CSFR) (peptide)
peptide: {d‑Biotin‑LC}-PSPLS[pY]ENLTFQ
